B1: TPR t1 (parent)
chain: GACCAAUCUGCCCUCAGAGCUCGAGAACAUCUUCGGAUGCAGAGGAGGCAGGCUUCGGUGGCGCGAUAGCGCCAACGUCCUCAACCUCCAAUGCAUCCCACCACAUGAUGAUGCCUGAAGAGCCUUGGUUUUUUG

In the data set the parent is B1. Description: polymerase ribozyme fitness, log enrichment relative to wild type (log ratio); higher = more active; in vitro selection for triplet polymerase activity. In outline:
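Mutant libraries for each subunit of a heterodimeric triplet polymerase ribozyme were made by PCR and then transcribed. Each library underwent one round of in vitro selection in triplicate: annealing with a biotinylated primer, the partner subunit and triplets, frozen incubation at −7 °C, gel excision of extended constructs, streptavidin-bead capture and RT-PCR. Input and output libraries were Illumina-sequenced, and only genotypes with ≥10 input reads and ≥1 read per output were kept. Fitness is the logarithm, base 2, of genotype enrichment over wild-type enrichment, computed from inverse-variance-weighted replicate averages.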
Consider G39C U109A G110U, for which the “polymerase ribozyme fitness (log ratio)” value is -3.37.

Take C40U C73A: the “polymerase ribozyme fitness (log ratio)” value was -0.621.

Take C40A C104U G110A C124U: the “polymerase ribozyme fitness (log ratio)” value was -2.31.

Consider C40A C72G U78C A121G U132A, for which the “polymerase ribozyme fitness (log ratio)” value is 0.388.

On to G39U C49U C56U, for which the “polymerase ribozyme fitness (log ratio)” value was -1.53.

For the variant A41C G61U G93C, the “polymerase ribozyme fitness (log ratio)” value was -1.3.

Regarding G39U U92C C101G, the “polymerase ribozyme fitness (log ratio)” value is -5.46.

Turning to C40A C102A G113U C124A, the “polymerase ribozyme fitness (log ratio)” value was -6.46.

As for A41C G63C G77U A91G U96G A108G U112G, the “polymerase ribozyme fitness (log ratio)” value was -6.24.

Turning to A41U G52A C62U G117U, the “polymerase ribozyme fitness (log ratio)” value was -5.18.

Turning to G39U G77U C89U, the “polymerase ribozyme fitness (log ratio)” value is -1.38.

Consider G39U C49G C64U G117C, for which the “polymerase ribozyme fitness (log ratio)” value is -4.42.

Turning to A41C C62U, the “polymerase ribozyme fitness (log ratio)” value was -2.99.

In the case of C40A G60A G110C, the “polymerase ribozyme fitness (log ratio)” value is -6.85.

On to C40A U78G C88G, for which the “polymerase ribozyme fitness (log ratio)” value is -4.1.

For C40G U116C, the “polymerase ribozyme fitness (log ratio)” value is -2.34.

In the case of C40G G48A, the “polymerase ribozyme fitness (log ratio)” value was -1.87.

Consider C40G G48U, for which the “polymerase ribozyme fitness (log ratio)” value is -1.55.

Turning to C40U G48A C53A G113C, the “polymerase ribozyme fitness (log ratio)” value was -2.73.

As to A41C G51U A121G, the “polymerase ribozyme fitness (log ratio)” value was -3.12.

For the variant A41U A105C, the “polymerase ribozyme fitness (log ratio)” value is -5.02.

With C40U C64U C73G G122A, the “polymerase ribozyme fitness (log ratio)” value was -5.15.

On to C40G A43U U112G A119U U126A, for which the “polymerase ribozyme fitness (log ratio)” value is -4.57.

For C40U G71A U81C A95U, the “polymerase ribozyme fitness (log ratio)” value is -3.

Turning to A41G G48A, the “polymerase ribozyme fitness (log ratio)” value was -1.31.

In the case of G39C G71U, the “polymerase ribozyme fitness (log ratio)” value was -0.983.

As for C40A G48U, the “polymerase ribozyme fitness (log ratio)” value was -1.61.

Turning to C40A A43U C70U C86U G93U C97G G135C, the “polymerase ribozyme fitness (log ratio)” value is -6.34.

Consider C40G C56A U106C, for which the “polymerase ribozyme fitness (log ratio)” value is -1.47.

G39U G63C A91C G113U A121C: the “polymerase ribozyme fitness (log ratio)” value is -3.83.

Regarding A41U C98U, the “polymerase ribozyme fitness (log ratio)” value is -2.83.

Consider G39U C56U C73U, for which the “polymerase ribozyme fitness (log ratio)” value is -1.4.

In the case of A41U A84U C88A, the “polymerase ribozyme fitness (log ratio)” value is -3.83.

Regarding C40G C124U, the “polymerase ribozyme fitness (log ratio)” value amounted to 0.744.

In the case of C40U G51A G60U C82G U96A U116G, the “polymerase ribozyme fitness (log ratio)” value was -6.02.

For A41C A46C C114U U131C, the “polymerase ribozyme fitness (log ratio)” value was -3.66.

For the variant C40G C94G A121U, the “polymerase ribozyme fitness (log ratio)” value is -0.125.

For C40U G52U U96G A105U G120A G128C U131G, the “polymerase ribozyme fitness (log ratio)” value was -6.51.

As to G39U C49A C80U, the “polymerase ribozyme fitness (log ratio)” value was -3.62.

As to C40U C49G U59A, the “polymerase ribozyme fitness (log ratio)” value is -1.73.

In the case of C40A G61C A118U U130G, the “polymerase ribozyme fitness (log ratio)” value was -3.57.

In the case of C40G A111C, the “polymerase ribozyme fitness (log ratio)” value was -0.485.

For the variant C40G A111G, the “polymerase ribozyme fitness (log ratio)” value is -0.323.

On to C40A C56U C72G, for which the “polymerase ribozyme fitness (log ratio)” value was -3.26.

Turning to C40G G63U C80G C123U, the “polymerase ribozyme fitness (log ratio)” value was -6.43.

In the case of C40U A74G G77U C123U, the “polymerase ribozyme fitness (log ratio)” value is 1.22.

Turning to G39U C115G, the “polymerase ribozyme fitness (log ratio)” value was -2.58.

In the case of C40U C53G, the “polymerase ribozyme fitness (log ratio)” value is 0.608.

On to C40U C53A, for which the “polymerase ribozyme fitness (log ratio)” value amounted to 0.0513.

With C40U G52U, the “polymerase ribozyme fitness (log ratio)” value was -1.14.

In the case of C40A G60A G113U G122C, the “polymerase ribozyme fitness (log ratio)” value was -4.23.

In the case of C40U C123A, the “polymerase ribozyme fitness (log ratio)” value was found to be 0.43.

With C40U C123U, the “polymerase ribozyme fitness (log ratio)” value is 0.0584.

For the variant C40U G52A G60U A91U U109A, the “polymerase ribozyme fitness (log ratio)” value is -6.64.

Regarding C40G A46U C56A U92A C114U, the “polymerase ribozyme fitness (log ratio)” value was -6.09.

For A41U G57U C86G C123U, the “polymerase ribozyme fitness (log ratio)” value is -4.13.

G39U C70G: the “polymerase ribozyme fitness (log ratio)” value was -4.12.

On to G39U G61C U130G, for which the “polymerase ribozyme fitness (log ratio)” value is -2.15.

Regarding C40G G127C, the “polymerase ribozyme fitness (log ratio)” value is -1.55.

As to A41U G60U, the “polymerase ribozyme fitness (log ratio)” value was -1.91.

A41U C73G A90C C114U G128A: the “polymerase ribozyme fitness (log ratio)” value was -5.13.

As for C40A G61C U126G, the “polymerase ribozyme fitness (log ratio)” value is -5.2.

Turning to C40U C98A, the “polymerase ribozyme fitness (log ratio)” value was -5.

As for C40U G52C G117C, the “polymerase ribozyme fitness (log ratio)” value is -6.09.

As for G39C G48A C49U C89A, the “polymerase ribozyme fitness (log ratio)” value is -4.19.

For G39U G61A A75U U81C C99A G117U, the “polymerase ribozyme fitness (log ratio)” value is -7.32.

Regarding C40U G110A, the “polymerase ribozyme fitness (log ratio)” value is -1.7.

With C40U G110C, the “polymerase ribozyme fitness (log ratio)” value was -4.3.

Regarding G39U U106C, the “polymerase ribozyme fitness (log ratio)” value is -0.461.

Regarding G39U A43C C62U G127A, the “polymerase ribozyme fitness (log ratio)” value is -4.5.

For C40G G51A A68G, the “polymerase ribozyme fitness (log ratio)” value was -6.59.

For the variant A41C G48A G51U C80A C99G C115A U116G, the “polymerase ribozyme fitness (log ratio)” value is -6.22.

As for G39U G63A, the “polymerase ribozyme fitness (log ratio)” value was -1.75.

As to G39U C40U G42A C56U, the “polymerase ribozyme fitness (log ratio)” value is -2.23.

Take A41U G61A C102A U133G: the “polymerase ribozyme fitness (log ratio)” value was -3.96.

Turning to C40A U78A C79U U109A, the “polymerase ribozyme fitness (log ratio)” value is -6.14.

For the variant C40A U54C C82G A118U C123U, the “polymerase ribozyme fitness (log ratio)” value was -0.573.

Take A41U G52C C124U U131C G135U: the “polymerase ribozyme fitness (log ratio)” value is -1.81.

In the case of G39U C62U, the “polymerase ribozyme fitness (log ratio)” value is -1.71.

For C40U C88A, the “polymerase ribozyme fitness (log ratio)” value was -0.911.

G39U C56G C102U: the “polymerase ribozyme fitness (log ratio)” value was -2.53.

For the variant C40G G61A C72U U112C, the “polymerase ribozyme fitness (log ratio)” value was found to be 1.6.

A41G C79G C114A: the “polymerase ribozyme fitness (log ratio)” value is -5.3.

The record behind these values is the RNAGym collection of RNA variant scans (doi:10.1073/pnas.2313332121).
